Assay: label from the status in PepcDB records
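Further: failed if final PepcDB status was selected cloned or expressed and not failed if soluble or beyond.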

Sequence | protein production
SEILRKFKILGRSKSPIFAFTVTAGLALTAVTGSATAVSIFRDSPSNKIATAVEGVVRSSRAIYSITLTVADYKYTLRRLPADSDEYLQRLTEVHSRSAKRILKLCESNKGFYVKAGQFVATLKLVPKEYSLALSSLQDKAVPCNFQEIKQVLTSNLGQNLTEIYLSFDEEPIAAASIAQVHHAVLKNHQEVAVKVQYPGLKQNMMLDTMIMSFLSKSVAKIFPEYRFDWLVYEFVKSISQELDFLQEAKNSERIAKNFKHNKMITIPTVFSEFTTTQVLTMQFCKGFKVDDVESLKRTNVSPEKVAKVLVEVFAEMIFVHGFIHGDPHPGNILVSPEGQNGFSLVLLDHGNCKTLDEAFRRDFCRLWEALILLDSNKIQELGKQFGVGKYAKFFPVIFTGRTSESGLIRSITLKLGAPQRVRLLAYAKYAVYGLGYKPTSEPDFVEKSVISRSVMLMSYLRLRLILELMELFQGMKKLKHTIYGFYGQLVGGITNSVKRITCSV | failed
SEQSSPGFRQTHLQDLSEATQDVKEENHYLTPRSVLLELDNIIASSDSGESIETDGPDQVSGRIECHYEPMESYFFKETSHESVDSSKEEPQTLPETQDGDLHLQEQGSGIDWCLSPADVEAQTTNDQKGSASLTVVQLSILINNIPDESQVEKLNVFLSPPDVINYLALTEATGRICVSQWEGPRRLGCIFCHGDHLLAVNDLKPQSLEEVSLFLTRSIQKEKLKLTIGRIPNSETFHAASCMCPSKCQSAAPSQLDKPRLNRAPKRSPAIKKSQQKGARE | not failed
SGARRQALIDAQSWRLRYERIMREVGVATVEYEAASGRATWGMGAGKVLGEDVARISSLDEWLEHIAPDERGLVEATWSSVASGETWASEQSYTLMRTDGEPLRVRERLACVRGADDSVEMVVGMLRPEPLESGDG | failed
SGCRCCKIIQSYLFDPVQVPSPGYVNEVNSCKLDEDDTDKLKGKWSSEVLVQKNDPQRQGSKKTESSSRTADPWEPCWPHQGPLPQGDAGGEHHACGVNGIGPAATPQPTGNSSPTQDDRGSWASTANTVPPTQPFLEGGGTRKQDCVLLASEGTQVMRNGDSRAPSEAESFALEVQDHVFQIPAPDYLQHWGPAGDNVDHNEKDCVFKNHTEDESLEGIQPPVGEHGLNTPFSVRRSWDSLNEDVETEVLSICFNEKGPVHAMPVVDSGNRQEDTHGSDGDGDGEIVDEDAAVAEALAALEAATAGEDLDETD | not failed
SGFRKMAFPSGKVEGCMVQVTCGTTTLNGLWLDDTVYCPRHVICTAEDMLNPNYEDLLIRKSNHSFLVQAGNVQLRVIGHSMQNCLLRLKVDTSNPKTPKYKFVRIQPGQTFSVLACYNGSPSGVYQCAMRPNHTIKGSFLNGSCGSVGFNIDYDCVSFCYMHHMELPTGVHAGTDLEGKFYGPFVDRQTAQAAGTDTTITLNVLAWLYAAVINGDRWFLNRFTTTLNDFNLVAMKYNYEPLTQDHVDILGPLSAQTGIAVLDMCAALKELLQNGMNGRTILGSTILEDEFTPFDVVRQCSGVTFQ | not failed
SGIIKMAIRFDRRAYPPQITPKMCLLEWCRREKLPQPVYETVQRTIDRMFCSVVTVAEQKYQSTLWDKSKKLAEQTAAIVCLRSQGLPEGRLGEESPSLNKRKREAPDQDPGGPR | not failed
SGSSMEEKVVAVIMVGGPTKGTRFRPLSLNIPKPLFPIAGQPMVHHPISACKRIPNLAQIYLVGFYEEREFALYVSAISNELKVPVRYLREDKPHGSAGGLYHFRNLIMEDSPSHIFLLNCDVCCSFPLPKMLEAHRGYGGIGTLLVIKVSPESASQFGELVADPVTNELLHYTEKPETFVSDRINCGVYVFTPEIFNAIGDVSTQRKDRATLKRVSSFEALQPATRIPTDFVRLDQDILSPLAGKKRLYTYETMDFWEQIKSPGMSLRCSGLYLSQFRLTSPQLLASGDGTRSAIVIGDVYIHPSAKVHPTAKIGPNVSISANARVGPGVRLMSCIILDDVEIMENAVVTNAIVGWKSSIGRWSRVQAEGVYNSKLGVTILGDSVAVEDEVAVTSSIVLPNKTLNVSVQDEIIL | failed
SHMEIVPDTSVVIDGRVSDQVKADADPDTDVDGMGFAGATVVVPEAVVGELEAQANDGRETGWEGLEELQTLVDLAEEGTIDVEYVGRRPDAIEKREAGEGQIDALIRDIAGDRDATLVTSDDVQAEVARAKGLAVEFVDPVKRTVDRLQI | not failed
SHPCFVQGRPELLSQIKRKQSARTVEDKQVNEQTQQNLEVVMAEMRAMREKAKNMEDKMNKLTKENRDMWTQMGSMRQQHARQQQYFKKLLHFLVSVMQPGLSKRVAKRGVLEIDFCAANGTAGPNSKRARMNSEEGPYKDVCDLLESLQRETQEPFSRRFTNNEGPLISEVTDEFGNSPVGRGSAQDLFGDTFGAQSSRYSDGGATSSREQSPHPIISQPQSNSAGAHGANEQKPDDMYMGSGPLTHENIHRGISALKRDYQGASPASGGPSTSSSAPSGAGAGARMAQKRAAPYKNATRQMAQPQQDYSGGFVNNYSGFMPSDPSMIPYQPSHQYLQPHQKLMAIEDQHHPTTSTSSTNADPHQNLYSPTLGLSPSFDRQLSQELQEYFTGTDTSLESFRDLVSNHNWDDFGNNVPLDDDEEGSEDPLRQLALENAPETSNYDGAEDLLFDNEQQYPENGFDVPDPNYLPLADEEIFPHSPALRTPSPSDPNLV | not failed
SINKVLDHFRRKGINQHVQNGYHGIVMNNFECEPAFYTCVEVTAGNRLFYHIVDSDEVSTKILMEFNKMNLPGEVTFLPLNKLDVRDTAYPETNDAIPMISKLRYNPRFDKAFKHVFGKTLICRSMEVSTQLARAFTMDCITLEGDQVSHRGALTGGYYDTRKSRLELQKDVRKAEEELGELEA | failed
SKVEVIYKELGKQHRFSFKGQIFFVSIDSMMEKIDFNIEDSVIVLNFDHAHLWDDSAVNAIDTIVRKFEEKNNVVYVEKLNADSRKIISELSYLNETHL | failed
SKVWKYFGFDTNAEGCILQWKKIYCRICMAQIAYSGNTSNLSYHLEKNHPEEFCEFVKSN | not failed
SLDDDDYPAYTMGRAAAILGTTPAFLRALGDARLITPLRSEGGHRRYSRYQLRIAARARELVDQGTPVEAACRIIILEDQLEDALRLNEEMRRSSDQPTA | failed
SLGSLPPAAMESMESLRLKDKNEPVQNLPIQKSIDDVDSKLKGIGKPRKFSKFSLYKQLHRHHLHDADSISSIDSTSSYFNHYRSHHNLIHGLKPHFKLFHPSS | failed
SLKKNPRDIVTKKANIRIKTALSKMFNAMAKVTYDIDEADGDVIVNTAFIDKKYLDEAFDILKEAYKKGLGISDRFGIVEENDRIKIQTICAVTLDGIFLRNSVPLIPKYGGILEITEDKERFIDIIGYDGSSLDPHEVFFNFVDCEKTFLAGFREVHRVAREKLEEVLKKLNWNGIKAIGEPNNELYGIGVNKDMCGVVTMGGINPLVLLKENEIPIELKAMHEVVRFSDLKSYKEI | not failed
SLKKVITVNEWYTTTVAATMLGRRPTDEDAILVSAPATSRPNVRIKAVFDGHAGEATSQYCAKHAAKHLGKLSEFTFAEVKKACLSLDAEIIRKLGPKHVAGSTGIIVAIERLSAPVVENVVGREIVPRAHEETFVPLEKLIQEEEEAEHPELVGRYPRVPDVQQKTIPAGSFLVTAINIGDSRATLIHSDGGLTRLSKDHKPNHPTEASRIEKAGGSVETFDVPRVDGVLALSRAFGDSDFKMNPNLPPEEQKVIAVPDVRQFYALSSDLLLLACDGVYEPSGMDWAYVRDLTVAEMQRSKGDLEEVAARVMDYAYDMNSQDNISVMLVAFHNQEVEHPTAVYKVVSGQVDKVEWDVAGKKGN | not failed
SLLDVAVSPDDRFILTADRDEKIRVSWAAAPHSIESFCLGHTEFVSRISVVPTQPGLLLSSSGDGTLRLWEYRSGRQLHCCHLASLQELVDPQAPQKFAASRIAFWCQENCVALLCDGTSVVYIFQLDARRQQLVYRQQLAFQHQVWDVAFEETQGLWVLQDCQEAPLVLYRPVGDQWQSVPESTVLKKVSGVLRGNWAMLEGSAGADASFSSLYKATFDNVTSYLKKKEERLQQQLEKKQRRRSPPPGPDGHAKKMRPGEATLSC | failed
SLLSYQHGYHAGNFADVIKHITLTRLLAYLTHKDKPLFYLETHSGRGIYDLKDKQSLKTEEYKEGINPVWLDRENLPSLFLEYISVIKQINLNSTLSYYPGSPYFAINQLRSQDRLYLCELHPTEYNFLLKLPHFNKKVYVNHTDGVSKLNALLPPPEKRGLIFIDPSYERKEEYKEIPYAIKNAYSKFSTGLYCVWYPVVNKAWTEQFLRKMREISSKSVRIELHLNPLINEGMTGCGLWIINPPYTFPSEIKLVLETLTTYFNPGSSSYMIESGSKLCHGL | not failed
SLPMQHVHTSPVRDYRNRCARREGETVFQVVVEETDLRVTALAELATPMAAYVGELRAQLKVWMEFQPAFRHSLVPVEVPEGAPEVVRRMAHGARLVGVGPFAAVAGTIAQMVAERFVDVSPELIVENGGDLYLYSERDRVVGILPDPASGDMVGILVRAGTAPVSLCGSSARIGHSLSLGDGDLAVVRARDASLADAAATAFGNMLRRADDVAAVTERAAQLASIGIEGVYAQCGGRIGIWGDMELAVA | not failed
SLRLHAGVWGLKVRYEGSFEVSKTPEEVFEFLTDPKRFSRAFPGFKSVEVEDGSFTIELRLSLGPLRGDARVRASFEDLEKPSKATVKGSGRGAGSTLDFTLRFAVEPSGGGSRVSWVFEGNVGGLAASMGGRVLDSLARRMINDVISGVKRELGEA | not failed
SLRPPLPPATPQEVQFVQHMLQHHAQALDLAAPMLERSQQRTVRSLALDIQLSQREQMRQMEAMLGRWGQPPGEPISPEHARMMGMASEAEVAGLSTLPVEQAERQFLRLMIRHHQGAVAMTLPMLDAAARPEVERLARQIVVTQRGEIRTMEGVLGRLDGEVPAAPMRPVEHGHGH | not failed
SMLSRAKPAVGGESPHTDKRKKKGRKIPKLEDLLSQRDFTGAITLLEFKRHVGEQEDDTNLWIGYCAFHLGDYKRALEEYENATKEENCNPEVWVNLACTYFFLGMYKQAEAAGFKAPKSRLQNRLLFHLAHKFNDEKKLMNFHQNLQDIKEDQLSLASNSEIHLPLPPECWD | failed
SNKLYIGNLSPAVTADDLRQLFGDRKLPLAGQVLLKSGYAFVDYPDQNWAIRAIETLSGKVELHGKIMEVDYSVSKKLRSRKIQIRNIPPHLQWEVLDGLLAQYGTVENVEQVNTDTETAVVNVTYATREEAKIAMEKLSGHQFENYSFKISYIPDEEVSSPSPPQRAQRGDHSSREQGHAPGGTSQARQIDFPLRILVPTQFVGAIIGKEGLTIKNITKQTQSRVDIHRKENSGAAEKPVTIHATPEGTSEACRMILEIMQKEADETKLAEEIPLKILAHNGLVGRLIGKEGRNLKKIEHETGTKITISSLQDLSIYNPERTITVKGTVEACASAEIEIMKKLREAFENDMLAVNQQANLIPGLNLSALGIFSTGLSVLSPPAGPRGAPPAAPYHPFTTHSGYFSSLYPHHQFGPFPHHHSYPEQEIVNLFIPTQAVGAIIGKKGAHIKQLARFAGASIKIAPAEGPDVSERMVIITGPPEAQFKAQGRIFGKLKEENFFNPKEEVKLEAHIRVPSSTAGRVIGKGGKTVNELQNLTSAEVIVPRDQTPDENEEVIVRIIGHFFASQTAQRKIREIVQQVKQQEQKYPQGVASQRSK | not failed
SNSALYNVDAGHRAVIFDRFRGVQDIVVGEGTHFLIPWVQKPIIFDCRSRPRNVPVITGSKDLQNVNITLRILFRPVASQLPRIYTSIGEDYDERVLPSITTEILKSVVARFDAGELITQRELVSRQVSDDLTERAATFGLILDDVSLTHLTFGKEFTEAVEAKQVAQQEAERARFVVEKAEQQKKAAIISAEGDSKAAELIANSLATAGDGLIELRKLEAAEDIAYQLSRSRNITYLPAGQSVLLQLPQ | not failed
SPAYQEDREEDTCTIGEREKTIATQRIKGFGVENPVLPESPPASMSSVMKNNPLYGDITLEEAMEERKKSPSWTIEEYDKHSVHTNLSGHLKENPNDLRFWLGDTYTPGFDTLLKKKKKRNKRSKLCHMGLILLLVASILVTIVTLSTIFS | failed
